Test results reported in IntAct's records for PubMed 18725399.

B1: U3 small nucleolar RNA-associated protein 6 (Saccharomyces cerevisiae), Q02354 (parent)
chain: MSKTRYYLEQCIPEMDDLVEKGLFTKNEVSLIMKKRTDFEHRLNSRGSSINDYIKYINYESNVNKLRAKRCKRILQVKKTNSLSDWSIQQRIGFIYQRGTNKFPQDLKFWAMYLNYMKARGNQTSYKKIHNIYNQLLKLHPTNVDIWISCAKYEYEVHANFKSCRNIFQNGLRFNPDVPKLWYEYVKFELNFITKLINRRKVMGLINEREQELDMQNEQKNNQAPDEEKSHLQVPSTGDSMKDKLNELPEADISVLGNAETNPALRGDIALTIFDVCMKTLGKHYINKHKGYYAISDSKMNIELNKETLNYLFSESLRYIKLFDEFLDLERDYLINHVLQFWKNDMYDLSLRKDLPELYLKTVMIDITLNIRYMPVEKLDIDQLQLSVKKYFAYISKLDSASVKSLKNEYRSYLQDNYLKKMNAEDDPRYKILDLIISKL
partner: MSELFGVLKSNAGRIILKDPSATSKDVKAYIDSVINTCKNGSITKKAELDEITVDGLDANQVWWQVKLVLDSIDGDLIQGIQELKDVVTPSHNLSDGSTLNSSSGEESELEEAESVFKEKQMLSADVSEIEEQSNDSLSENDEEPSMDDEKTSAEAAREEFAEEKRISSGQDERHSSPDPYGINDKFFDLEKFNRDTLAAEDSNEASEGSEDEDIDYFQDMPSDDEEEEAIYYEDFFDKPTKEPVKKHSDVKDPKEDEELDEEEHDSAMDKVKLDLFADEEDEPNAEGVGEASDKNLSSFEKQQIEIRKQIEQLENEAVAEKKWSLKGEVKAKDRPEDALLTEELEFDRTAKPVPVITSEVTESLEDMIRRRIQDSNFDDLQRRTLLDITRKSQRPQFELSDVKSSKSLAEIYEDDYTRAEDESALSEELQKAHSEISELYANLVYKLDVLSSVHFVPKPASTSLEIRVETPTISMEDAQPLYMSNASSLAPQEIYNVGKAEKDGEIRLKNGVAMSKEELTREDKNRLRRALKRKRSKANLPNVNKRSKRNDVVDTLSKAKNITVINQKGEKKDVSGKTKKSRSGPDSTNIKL
B2: U3 small nucleolar RNA-associated protein 6 (Saccharomyces cerevisiae), Q02354 (parent)
chain: B1 chain
partner: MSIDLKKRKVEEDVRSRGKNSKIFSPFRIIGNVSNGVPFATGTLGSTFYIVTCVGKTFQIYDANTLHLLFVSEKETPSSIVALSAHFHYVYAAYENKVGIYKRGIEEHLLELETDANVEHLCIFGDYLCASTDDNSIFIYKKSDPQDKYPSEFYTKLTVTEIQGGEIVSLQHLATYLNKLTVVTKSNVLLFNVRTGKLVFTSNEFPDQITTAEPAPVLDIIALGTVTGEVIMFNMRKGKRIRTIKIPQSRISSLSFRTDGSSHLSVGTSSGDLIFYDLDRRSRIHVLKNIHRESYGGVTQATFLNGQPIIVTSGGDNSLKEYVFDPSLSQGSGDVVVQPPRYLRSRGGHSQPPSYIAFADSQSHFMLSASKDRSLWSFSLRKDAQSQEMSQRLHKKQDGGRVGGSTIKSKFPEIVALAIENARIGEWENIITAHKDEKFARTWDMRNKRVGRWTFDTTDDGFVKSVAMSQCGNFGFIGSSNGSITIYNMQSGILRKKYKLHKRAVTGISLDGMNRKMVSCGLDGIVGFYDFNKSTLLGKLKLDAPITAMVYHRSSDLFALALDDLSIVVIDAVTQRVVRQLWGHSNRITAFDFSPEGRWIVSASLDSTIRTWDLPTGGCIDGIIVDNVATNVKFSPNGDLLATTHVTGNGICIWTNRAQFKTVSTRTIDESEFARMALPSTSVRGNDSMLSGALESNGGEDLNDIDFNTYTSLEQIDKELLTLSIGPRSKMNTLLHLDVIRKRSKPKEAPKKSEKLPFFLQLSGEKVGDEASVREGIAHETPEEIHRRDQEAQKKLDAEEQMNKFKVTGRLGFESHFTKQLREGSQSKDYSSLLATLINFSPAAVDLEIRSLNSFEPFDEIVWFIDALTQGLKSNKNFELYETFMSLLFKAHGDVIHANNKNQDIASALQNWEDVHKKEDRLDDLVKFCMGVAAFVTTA

Variants of: B1
Conditions: with mpp10_yeast MPP10, P47083

effect of a mutation on the interaction | Variant
decreasing interaction | MSKTRYYLEQCIPEMDDLVEKGLFTKNEVSLIMKKRTDFEHRLNSRGSSINDYIKYINYESNVNKLRAKRCKRILQVKKTNSLSDWSIQQRIGFIYQRETNKFPQDLKFWAMYLNYMKARGNQTSYKKIHNIYNQLLKLHPTNVDIWISCAKYEYEVHANFKSCRNIFQNGLRFNPDVPKLWYEYVKFELNFITKLINRRKVMGLINEREQELDMQNEQKNNQAPDEEKSHLQVPSTGDSMKDKLNELPEADISVLGNAETNPALRGDIALTIFDVCMKTLGKHYINKHKGYYAISDSKMNIELNKETLNYLFSESLRYIKLFDEFLDLERDYLINHVLQFWKNDMYDLSLRKDLPELYLKTVMIDITLNIRYMPVEKLDIDQLQLSVKKYFAYISKLDSASVKSLKNEYRSYLQDNYLKKMNAEDDPRYKILDLIISKL [G99E]

Variants of: B2
Conditions: with utp21_yeast UTP21, Q06078

effect of a mutation on the interaction | Variant
disrupting interaction | MSKTRYYLEQCIPEMDDLVEKGLFTKNEVSLIMKKRTDFEHRLNSRGSSINDYIKYINYESNVNKLRAKRCKRILQVKKTNSLSDWSIQQRIGFIYQRETNKFPQDLKFWAMYLNYMKARGNQTSYKKIHNIYNQLLKLHPTNVDIWISCAKYEYEVHANFKSCRNIFQNGLRFNPDVPKLWYEYVKFELNFITKLINRRKVMGLINEREQELDMQNEQKNNQAPDEEKSHLQVPSTGDSMKDKLNELPEADISVLGNAETNPALRGDIALTIFDVCMKTLGKHYINKHKGYYAISDSKMNIELNKETLNYLFSESLRYIKLFDEFLDLERDYLINHVLQFWKNDMYDLSLRKDLPELYLKTVMIDITLNIRYMPVEKLDIDQLQLSVKKYFAYISKLDSASVKSLKNEYRSYLQDNYLKKMNAEDDPRYKILDLIISKL [G99E]
